In paper PMC4004541, “PEG-Like Nanoprobes: Multimodal, Pharmacokinetically and Optically Tunable Nanomaterials” (PLoS ONE, 2014):

What was measured:
[1] = test system: mCherry expressing HT-29 tumor; assay: Intravital two photon microscopy of mCherry expressing HT-29 tumor in dorsal skinfold chamber; assay type: in vivo, nude mice; details: 10 nmoles IV
Excerpt: A feature of PN design is that the fluorochrome can be selected to optimize optical properties for different applications. To image the vascular pharmacokinetic phase with two photon microscopy, PN(497)10.0 was used because its fluorescein is readily excited in the two photon mode. […] To further examine the vascular and interstitial phases, a dorsal skinfold chamber was used for the intravital, two photon microscopy of a mCherry expressing HT-29 tumor ( Figure 5B ).
Dorsal skinfold chamber (DSFC) tumors were grown in female nude mice (nu/nu; 25–30 g; 6–8 weeks old) with modifications from previously published techniques, [35]. 10^6 mCherry-HT-29 tumor cells in matrixgel (BD) were subcutaneously injected in the back of mice ∼1.5 cm left of the dorsal midline approximately halfway from the neck to the tail base. […] On days 2, 3, and 4 days after tumor DSFC implantation, when tumors were typically 3 mm in diameter, image stacks of tumor tissue were recorded under general anesthesia with Ketamine and Xylazine. […]
Multiphoton excitation was obtained through DeepSee and MaiTai Ti:sapphire lasers (Newport/Spectra-Physics) tuned to 920 and 1000 nm to excite all fluorescent probes used. […] Emitted fluorescence was detected through 460/50, 525/50, 595/50, 660/40 band-pass filters and non-descanned detectors to generate four-color images. […]

[2] = Elimination by whole animal surface fluorescence imaging; assay type: in vivo; details: mice, after injection, n = 6
Protocol: Surface fluorescence images for representative animals are shown and total surface fluorescence is quantified in bar graphs to the right of the image. […] The pharmacokinetics and biodistributions of these PN’s is further analyzed below.
Figure 3 Role PEG in determining elimination by surface fluorescence imaging. A) Animals were injected with unPEGylated peptide and imaged at the times indicated. Bar graph gives whole animal surface fluorescence determined as means and standard deviations, n = 6.
(§1) A Kodak FX multispectral imaging system was used (Carestream Molecular Imaging, Rochester, NY). Excitation at multiple wavelengths (620, 650, 690, 710, 720, 730, 750 and 760 nm) with the emission at 830 nm was setup for IR-783 spectrum; Excitation at multiple wavelengths (420, 440, 460, 480, 510, 520, 530, and 540 nm) with the emission at 600 nm was setup for Cy3 spectrum; Excitation at multiple wavelengths (450, 470, 510, 520, 530, 540, 550, 570, and 590 nm) with the emission at 700 nm was setup for mCherry; with manufacturer’s software to separate (unmix) the IR-783 spectrum, Cy3 spectrum, or mCherry spectrum from skin autofluorescence and chlorophyll fluorescence from food. X-ray images were taken after fluorescence images. […]
as §1, with “Whole animal surface fluorescence imaging: All animal experiments in this work were approved by the Institutional Review Committee of the Massachusetts General Hospital. […]” for “A Kodak FX multispectral imaging system was used (Carestream Molecular Imaging, Rochester, NY).”

[3] = mouse, in vivo; for Alpha half-life / Beta half-life / k elim half-life / k perm half-life / k vas return half-life: iv
Protocol: To assess the relationship between PN dimensions and transcapillary passage, the classic two compartment pharmacokinetic model ( Figure 4A ) [17] was applied to PN(783)10.0 ( Figure 4B ) and PN(783)4.3 ( Figures 4C ).
Groups of 5 nude mice (female; 25–30 g; 6–8 weeks old; nu/nu) were injected (tail vein, IV) with 10 nmole of PN(783)4.3 or PN(783)10.0. 50 µl of blood was collected from tail tip at the indicated times. The blood was processed as above, and diluted (25 µl plasma, 700 µl of PBS). Fluorescence was measured with Cary Eclipse Fluorescence Spectrophotometer, excitation at 765 nm and emission from 790 to 880 nm. The fluorescence intensity at 806 nm was plotted over time, and the data was fit to a biexponential, two phase decay curve. The fast and slow distribution half-life was given by the two phase decay fit with Graphpad Prism software.
From the two phase decay fit, a biexponential equation for blood concentration as a function of time, [drawing 8] , was obtained. By the relation of macro constants and micro constants: [drawing 9] , [drawing 10] , [drawing 11] [drawing 12] , micro constants k's can be obtained, and the half-life was calculated by [drawing 13] , as described in [17]. The curve for interstitium concentration vs. time was fit with MATLAB based on the curve of blood concentration vs. time.
PN pharmacokinetics: Groups of 5 nude mice (female; 25-30g; 6-8 weeks old; nu/nu) were injected (tail vein, IV) with 10 nmole of PN(783)4.3 or PN(783)10.0. 50 μl of blood was collected from tail tip at the indicated times. The blood was processed as above, and diluted (25 μl plasma, 700 μl of PBS). Fluorescence was measured with Cary Eclipse Fluorescence Spectrophotometer, excitation at 765 nm and emission from 790 to 880 nm. The fluorescence intensity at 806 nm was plotted over time, and the data was fit with two-phase decay curve. The fast and slow distribution half-life was given by the two-phase decay fit with Graphpad Prism software.
Two compartment model: From the two-phase decay fit, a biexponential equation for blood concentration as a function of time, [picture] , was obtained. By the relation of macro constants and micro constants, [picture] , [picture] , [picture] , micro constants k's can be obtained, and the half-life was calculated by [picture] , as described in ^5. The curve for interstitium concentration vs. time was fit with MATLAB based on the curve of blood concentration vs. time.
Serum fluorescence data from Figure 3B and Figure 3C was analyzed using the two-compartment model as described ^5. Data were first fit to biexponential equation, yielding values of Alpha, Beta (apparent decay constants) and values of A and B as shown in equations 1 and 2 below.

Row | Substance | Localisation by intravital microscopy, interstitial phase ([1]; 20 h post-injection) | Localisation by intravital microscopy, vascular phase ([1]; ten minutes post-injection) | Elimination seen by whole animal surface fluorescence [2] | Alpha half-life [3] [h] | Beta half-life [3] [h] | k elim half-life [3] [h] | k perm half-life [3] [h] | k vas return half-life [3] [h] | k perm expressed as a half-life [3] [h]
1 | (DOTA)Lys(PEG 30 kDa)-Cys(Fl) [PN(497)10.0, PEG-like Nanoprobe: 30 kDa PEG, fluorescein, DOTA peptide] | seen in the interstitium at the tumor periphery | confined to the vasculature |  |  |  |  |  |  | 
2 | (DOTA)Lys(PEG 30 kDa)-Cys(IR-783) [PN(783)10.0] |  |  | excellent elimination at 48 h | 0.51 | 7.0 | 4.2 | 1.02 | 1.23 | 
3 | (DOTA)Lys(PEG 5 kDa)-Cys(IR-783) [PN(783)4.3] |  |  | bladder accumulation (arrow) at only 20 minutes post injection | 0.13 | 1.64 | 1.01 | 0.40 | 0.20 | 0.395
